Data published in the supplement of paper PMC9170038.

System: MS2 coat protein
Test: apparent KD of MS2 coat protein; designed switch direction (-1 OFF switch, 1 ON switch): -1; higher = weaker reporter binding
In short: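 Designed RNA switches were transcribed on Illumina chips by stalled E. coli RNA polymerase and titrated with SNAP-549-labelled MS2 coat protein from 0.7 or 1.5 nM, doubling to 3 µM. Step length ran from 0.8–1.5 h at the lowest concentration to 10–20 min at the highest. The apparent KD is the median over clusters for each design, from curve-fitted normalised cluster fluorescence.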

[1] = input ligand: microRNA oligo, concentration not stated
[2] = Eterna round: R95, input ligand: microRNA oligo, concentration not stated
[3] = Eterna round: R95, input ligand: FMN 200 uM
[4] = Eterna round: R95, input ligand: none

Sequence | apparent KD of MS2 coat protein (input ligand: FMN 200 uM) [µM] | apparent KD of MS2 coat protein [1] [µM] | apparent KD of MS2 coat protein (input ligand: none) [µM] | apparent KD of MS2 coat protein [2] [µM] | apparent KD of MS2 coat protein [3] [µM] | apparent KD of MS2 coat protein [4] [µM]
GUAAAUCAUGUAGGAUAUGCGUGGCGAAGCUAUGCAGAAGGACAUGAGGAUCACCCAUGUGCUUCCGUCUGAGAACAGACGGAA [Mat - Exclusion NG 1 - Mod of JL - D27] (Eterna round: R96, puzzle: Exclusion NG 1) | 0.105 | 0.187 | 0.341 |  |  | 
UAUAAUCGAGGAUAUACAUGAGGAUCACCCAUGUGUUGCCGCGUGACAUGAUCGUCAGGUAGAAGGCGAUUAUA [Exclusion 3 - Mod of Jieux's Gilly Gone Silly 23 v.10] (puzzle: Exclusion 3) |  |  |  | 0.147 |  | 
GAUAGAGAGCAGGAUAUCAUAGAAAUGUAUGAAUGAGAAGGGCUCACAUGAGGAUCACCCAUGUGGUCCUAGAU [JL Dibiri mod 19] (puzzle: Exclusion 6) |  |  |  | 0.0224 | 0.135 | 0.0211
CGGUGCUGAGGAUAUACAUGAGGAUCACCCAUGUGUUCCAGCUAGCGUACUGGCAGGUGUAGAAGGCGGUACUG [JL-ex3-3.41 Brourd mod] (puzzle: Exclusion 3) |  |  |  | 0.0187 | 0.0687 | 0.0201
CGGUACUGAGGAUAUACAUGAGGAUCACCCAUGUGUACCAGCUAGCGUACUGGCAUUAGUAGAAGGCGGUGCUG [JL-ex3-3.19 Brourd mod] (puzzle: Exclusion 3) |  |  |  | 0.0143 | 0.0157 | 0.0137
ACUAGAUGAGGAUAUGCAUAUUUUCGUGUUCUUCUAGGUUAACAUGAGGAUCACCCAUGUAGAAGGCGUCUAUA [Exclusion 2 - 22] (puzzle: Exclusion 2) |  |  |  | 0.0213 |  | 
UUGUUGUGUGUAGGAUAUGCGUAUUAUUAUUAUGCAGAAGGACAUGAGGAUCACCCAUGUGUAUUAUUAUUAUAUAUUAUAUAU [Title] (Eterna round: R96, puzzle: Exclusion NG 1) | 0.0433 | 0.0218 | 0.025 |  |  | 
GAUCUGAUAGGAUAUACAUGAGGAUCACCCAUGUGCGAGCUAGCGAAAGCUAGCUCAGGUAGAAGGGUCAGAUC [Ex3 dot plot directed v2] (puzzle: Exclusion 3) |  |  |  | 0.0117 |  | 
GCCUCACAUGAGGAUCACCCAUGUCAGGAUAUCUCGUGCGCAGUAAUUAUCUGGCUAAAGAGAAGGGACAUUAA [Bedile] (puzzle: Exclusion 1) |  |  |  | 0.0466 |  | 
ACCUCACAUGAGGAUCACCCAUGUCAGGAUAUGUACCUAGCCAAAACAAAGGCCAGAAGCAGAAGGGACUGCGG [Ralerezara] (puzzle: Exclusion 1) |  |  |  | 0.0534 | 0.0241 | 0.0446
AUAAUAUAUGUAGGAUAUCUGCACGAUUAGUGCAGAGAAGGACAUGAGGAUCACCCAUGUAAUUAAGAUCAAUUAUUAAAUUAU [ENG1/4-B1] (Eterna round: R96, puzzle: Exclusion NG 1) | 0.0843 | 0.0246 | 0.0354 |  |  | 
UAUAUGUCAGGAUAUUAGUAGUAAAUGAAUAAAAUUAUUACUGAGAAGGGACAUGAGGAUCACCCAUGUGCCUC [Mat - Exclusion 4 - Eli Mod - D24] (Eterna round: R97, puzzle: Exclusion 4) | 0.387 |  | 0.0374 |  |  | 
GUGUACGGAGGAUAUAUGUGGGCAGGCUGACCUGCAGCUUCACAUGAGGAUCACCCAUGUAGAAGGCUGUGCAC [JL-ex2-2.08 Brourd mod] (puzzle: Exclusion 2) |  |  |  | 0.0169 |  | 
CGGAGACAUGAGGAUCACCCAUGUGAGGAUAUGGCGUGCGCUACUAAAGGUGGUUGCUCCAGAAGGCGCGGUGU [Eternabot (L1) Solution 3] (Eterna round: R97, puzzle: Exclusion 1) | 0.0745 |  | 0.0652 |  |  | 
ACCUCUGCUGAGGAUAUCCUUGCGGAAGAAGGAGGAGAAGGCAGAACAUGAGGAUCACCCAUGUGGGAACAACG [Eternabot (Original) Solution 37] (Eterna round: R97, puzzle: Exclusion 6) | 0.182 |  | 0.0838 |  |  | 
CGCAUACUAGGAUAUACAUGAGGAUCACCCAUGUCGCCGGGCCCACUCAUACUAAAACGUAGAAGGAGUUUGCC [Enlalari] (puzzle: Exclusion 3) |  |  |  | 0.0165 |  | 
CCCGAGCAUGUAGGAUAUGGCUCGGUGUCUGGGCCAGAAGGACAUGAGGAUCACCCAUGUCUGCGGGUGUGGAUAUGAUUUGGG [-32, -31 kcal A 20%] (Eterna round: R96, puzzle: Exclusion NG 1) | 0.0852 | 0.0145 | 0.0321 |  |  | 

Sequence | apparent KD of MS2 coat protein (input ligand: FMN 200 uM) [µM] | apparent KD of MS2 coat protein [1] [µM] | apparent KD of MS2 coat protein (input ligand: none) [µM] | apparent KD of MS2 coat protein [2] [µM] | apparent KD of MS2 coat protein [3] [µM] | apparent KD of MS2 coat protein [4] [µM]
GGACUGCGACACAGCCAAACAAAACAUGAGGAUCACCCAUGUCAGGAUAUACCGAUGCAGCAUCUGUAGAAGGGACAGAUCCAA [Qusorave] (Eterna round: R96, puzzle: Exclusion NG 3) | 0.0803 | 0.0454 | 0.0859 |  |  | 
UAAAAGUGAGGAUAUACGUGAAAUCCGCCAGGCGGAGAUCUACAUGAGGAUCACCCAUGUAGAAGGCACGGAAU [EX2 A.13] (Eterna round: R97, puzzle: Exclusion 2) | 0.0158 |  | 0.014 |  |  | 
AAGUACCGGUGAGGAUAUUUUUAAUAGAACUUUAUGAUAUACAUGAGGAUCACCCAUGUUACUUUAAAGAAGGCAUCGGAUUAA [Mat - Exclusion NG 2 - Mod of JL - D86] (Eterna round: R96, puzzle: Exclusion NG 2) |  | 0.0125 |  |  |  | 
CUUCUCGUUGUGAGGAUAUCGUUUUCGUCUCGGAUCGAGAAGGCACAUGAGGAUCACCCAUGUUUGUUGUGGUU [JR_BMOE4_Sub090] (puzzle: Brourd's mod of Exclusion 4) |  |  |  | 0.0879 |  | 
ACAUGAGGAUCACCCAUGUAAUGAUGGGUACUAUAUUAUUCGUAGGAUAUCGUUGUUAGUUUGUGCGAGAAGGACGAUUGCUUU [JR_ExcNG3_Sub057] (Eterna round: R96, puzzle: Exclusion NG 3) |  | 0.733 |  |  |  | 
ACACAGCGAGGAUAUACAUGAGGAUCACCCAUGUGGUGGCAGUUACGGUAGGACUAGUGUAGAAGGUGCCGUGG [EX3 #28] (Eterna round: R97, puzzle: Exclusion 3) | 0.6 |  | 0.588 |  |  | 
AAUGUCUGAGGAUAUCGAUUAGUGUACAUGAGGAUCACCCAUGUUUUUAUUUGUAUAUUACGAGAAGGCAGUGGAA [JR_E5_Sub087] (puzzle: Exclusion 5) |  |  |  | 0.0191 | 0.0206 | 0.0172
CACACACAUGAGGAUCACCCAUGUCAGGAUAUCGACACACACCCACACAAACAAACCACGAGAAGGGACGGCCA [E4 1] (Eterna round: R97, puzzle: Exclusion 1) | 0.037 |  | 0.0486 |  |  | 
GUGGGUUACAUGAGGAUCACCCAUGUAGAGUGGGAAGAGAGAUAGGAUAUGAUGUGAGAAUUAUAUUAGAAGGAUCGAGACUCG [AK ExNG3-2.5] (Eterna round: R96, puzzle: Exclusion NG 3) | 0.246 | 0.174 | 0.285 |  |  | 
UGUUGUUACGUAGGAUAUGAGGAUCACCCAUAGAAGGAUAUCGAAAGAGAAGGUCUGAGGAUUACCCAGAAGGACGGGUUAACA [pwkr exNG2 2xF5 2xFMN.4] (Eterna round: R96, puzzle: Exclusion NG 2) | 1.34 | 0.131 | 0.139 |  |  | 
CUAAAUCAUGUAGGAUAUGCGUGGCAAAGCUAUGCAGAAGGACAUGAGGAUCACCCAUGUGCUUCCGUCUGAGAACAGACGGUA [Mat - Exclusion NG 1 - Mod of JL - D23] (Eterna round: R96, puzzle: Exclusion NG 1) | 0.306 | 0.0496 | 0.0682 |  |  | 
CCGCAAAUGGAGGAUAUCGUAUCGGAGACGAUACGAGAAGGCCAAACAUGAGGAUCACCCAUGUGUCCUAGCGG [Mat - Exclusion 6 - Eli Mod - D102] (puzzle: Exclusion 6) |  |  |  | 0.0151 | 0.0293 | 0.016
AAACAAGCGUGAGGCUCGUCUUAAAAAGCUUCAUGAAAAACAUGAGGAUCACCCAUGUAAAAUGAUCGAAAGAUCAA [JL turnoff v2 28] (Eterna round: R96, puzzle: Sensor v2, turn-off variant 2) | 0.0154 | 0.0342 | 0.0182 |  |  | 
AGAAAGUCAGGAUAUCGAAGGUAGUGGAGAGGAGUGUGGUACGAGAAGGGACAUGAGGAUCACCCAUGUAGGAG [JR_Exclusion4)Sub007] (puzzle: Exclusion 4) |  |  |  | 0.0311 |  | 
CUAUAUUUAGGAUAUGUUCGGCUAGACAUGAGGAUCACCCAUGUGAGCCUAGGAGCAGCCACAGAAGGGAGUAUGU [Eternabot (L2) Solution 62] (Eterna round: R97, puzzle: Exclusion 5) | 0.0276 |  | 0.0328 |  |  | 
UUAAUUAAUUAACGCAGCAAGAUCACAUGAGGAUCACCCAUGUAGGAUAUCAGCUCGUUUAGAGCUGAGAAGGACAUAGCUGCG [ExNG3/1-A2] (Eterna round: R96, puzzle: Exclusion NG 3) | 0.0876 | 0.0111 | 0.018 |  |  | 
CACCUGAAGUCAGGAUAUCAUACAUGAGGAUCACCCAUGUAAUAAAUGAGAAUUUCGAAUGUAAUUGAGAAGGGACAAUAAGGC [Ostricism 97 - Jieux - Exclusion NG 2] (Eterna round: R96, puzzle: Exclusion NG 2) | 0.0932 | 0.034 | 0.0442 |  |  | 
